Assay results as given in paper PMC8622905, “Structural Effects of Disease-Related Mutations in Actin-Binding Period 3 of Tropomyosin” (Molecules, 2021).

B1: Tpm3.12_(65–155)R91C (domain or fragment)
chain: not shown
modifications: oxidized Cys residues (disulfide between the N-terminal Cys of the two chains)
notes: tropomyosin Tpm3.12 (human, TPM3), residues 65-155 with the congenital myopathy mutation R91C; source: His-tag removed with thrombin; not shown: His-tag, N-terminal, cleaved
B2: Tpm1.1_(64–154)V95A (domain or fragment)
chain: not shown
modifications: oxidized Cys residues (disulfide between the N-terminal Cys of the two chains)
notes: tropomyosin Tpm1.1 (human, TPM1), residues 64-154 with the cardiomyopathy mutation V95A; source: His-tag removed with thrombin; not shown: His-tag, N-terminal, cleaved
B3: Tpm1.1_(64–154)I92T (domain or fragment)
chain: not shown
modifications: oxidized Cys residues (disulfide between the N-terminal Cys of the two chains)
notes: tropomyosin Tpm1.1 (human, TPM1), residues 64-154 with the cardiomyopathy mutation I92T; source: His-tag removed with thrombin; not shown: His-tag, N-terminal, cleaved
B4: Tpm3.12_(65–155)R91P (domain or fragment)
chain: not shown
modifications: oxidized Cys residues (disulfide between the N-terminal Cys of the two chains)
notes: tropomyosin Tpm3.12 (human, TPM3), residues 65-155 with the congenital myopathy mutation R91P; source: His-tag removed with thrombin; not shown: His-tag, N-terminal, cleaved
B5: Tpm1.1_(64–154) (domain or fragment)
chain: not shown
modifications: disulfide bond between the Cys residues of the N-terminal fusion sequences of the two chains (non-reducing conditions)
notes: tropomyosin Tpm1.1 (human skeletal isoform, TPM1), residues Leu64 to Ile154; Cloned in pET15b between NdeI and BamHI; also called Tpm1.1 peptide; wild-type Tpm1.1_(64–154); source: His-tag removed with thrombin; not shown: His-tag, N-terminal, cleaved
B6: Tpm3.12_(65–155) (domain or fragment)
chain: not shown
modifications: disulfide bond between the Cys residues of the N-terminal fusion sequences of the two chains (non-reducing conditions)
notes: tropomyosin Tpm3.12 (human skeletal isoform, TPM3), residues 65-155, numbered as in full-length Tpm3.12; Cloned in pET15b between NdeI and BamHI; One sentence of the methods prints 65–165; also called Tpm3.12 peptide; wild-type Tpm3.12_(65–155); source: His-tag removed with thrombin; not shown: His-tag, N-terminal, cleaved

Target: the molecule itself
Test: mass spectrometry; molecular weights of the purified peptides compared with theoretical MWs calculated in Expasy; Liquid Chromatography and Mass Spectrometry Laboratory

Stoichiometry N, 2:
B1
B2
B3
B4

Target: the molecule itself
Test: cross-linking; disulfide cross-link through the N-terminal Cys, seen on SDS-polyacrylamide gel; Laemmli solution without β-mercaptoethanol, with or without 3 min at 100 °C

Stoichiometry N, 2:
B5
B6
